The values that follow are results of earlier work, collected in patent US10421954B2, “Hybrid polymers, pharmaceutical compositions and methods of synthesizing the same” (New York University, priority 2013, dated 2019).

The conditions of this data set: literature value (ref. 25) for marketed PTH (1-34) (Forteo).

In the case of `CC[C@H](C)[C@H](NC(=O)[C@H](CCC(=O)O)NC(=O)[C@H](CO)NC(=O)[C@@H](NC(=O)[C@@H](N)CO)C(C)C)C(=O)N[C@@H](CCC(N)=O)C(=O)N[C@@H](CC(C)C)C(=O)N[C@@H](CCSC)C(=O)N[C@@H](Cc1cnc[nH]1)C(=O)N[C@@H](CC(N)=O)C(=O)N[C@@H](CC(C)C)C(=O)NCC(=O)N[C@@H](CCCCN)C(=O)N[C@@H](Cc1cnc[nH]1)C(=O)N[C@@H](CC(C)C)C(=O)N[C@@H](CC(N)=O)C(=O)N[C@@H](CO)C(=O)N[C@@H](CCSC)C(=O)N[C@@H](CCC(=O)O)C(=O)N[C@@H](CCCN=C(N)N)C(=O)N[C@H](C(=O)N[C@@H](CCC(=O)O)C(=O)N[C@@H](Cc1c[nH]c2ccccc12)C(=O)N[C@@H](CC(C)C)C(=O)N[C@@H](CCCN=C(N)N)C(=O)N[C@@H](CCCCN)C(=O)N[C@@H](CCCCN)C(=O)N[C@@H](CC(C)C)C(=O)N[C@@H](CCC(N)=O)C(=O)N[C@@H](CC(=O)O)C(=O)N[C@H](C(=O)N[C@@H](Cc1cnc[nH]1)C(=O)N[C@@H](CC(N)=O)C(=O)N[C@@H](Cc1ccccc1)C(=O)O)C(C)C)C(C)C` [PTH (1-34), parathyroid hormone 1-34], the half-life in serum is recorded as around 5 min.
